Stoichiometry N data for one substance are collected here from publication PMC12654638.

Usually stoichiometry N stands for the number of molecules, sites or subunits per partner or assembly.

In the experiment the target is carotenoependymin-Purple1 (Cep-Purple1) (Haliclona sp. (purple sponge)). The experiment is described as follows: SEC; HPLC size-exclusion chromatography (TSKgel G3000SWXL), calibrated with molecular standards; native protein estimated at 41-43 kDa against 23 kDa on SDS-PAGE.

Regarding “carotenoependymin-Purple1 (Cep-Purple1) (natural protein)”, the stoichiometry N was 2.
